Assay results published in the supplement of paper PMC10724198.
± gives the standard deviation of the averaged measurements.

System: Saccharomyces cerevisiae
Assay: protein stability index of tFT-peptide fusion (C-terminal peptide) (PSI (0-1 scale)); higher = more stable (slower turnover)
Conditions: genetic background: wild type; temperature: 30 C
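Also: PSI is a weighted mean of sequencing reads over stability bins, variants kept only with over 10 reads, mCherry proximal and sfGFP distal, peptide attached via GGGS linker.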

Going from GKTITNENPKGH to EYIWLSLGSVYI, the protein stability index falls from 0.705 ± 0.021 to 0.624 ± 0.05.

VRFGWCLGSGDG and KELESKLISKKR are within error of each other in protein stability index: 0.702 ± 0.068 for the first, 0.75 ± 0.068 for the second.

Compared with HGSDLSILRIEI, RLSSLSPFLVLS is lower in protein stability index: 0.722 ± 0.07 for the first, 0.589 ± 0.0084 for the second.

Going from CSLRVSADPLLT to TPVLPLSPFPPD, the protein stability index falls from 0.7315 ± 0.0071 to 0.607 ± 0.059.

Compared with SRAVTDRGWSPR, VYFLWPRFVCDA is lower in protein stability index: 0.68 ± 0.028 for the first, 0.585 ± 0.044 for the second.

VTSSIQNRCTSC and PLHRPLPRPPSP are within error of each other in protein stability index: 0.706 ± 0.076 for the first, 0.745 ± 0.019 for the second.

AAGDLGNKCGWG and GWMSGTPEFLGS are within error of each other in protein stability index: 0.68 ± 0.025 for the first, 0.707 ± 0.025 for the second.

Going from GGPPPHHKTRPG to RSPYSSLHNPLC, the protein stability index rises from 0.603 ± 0.063 to 0.706 ± 0.016.

First: VDKLVRCISVSI
Second: GGGGGGKEAVVR
The protein stability index of the first is lower: 0.5428 ± 0.0013 for the first, 0.649 ± 0.053 for the second.

Going from LPWGGVVVGSMV to YLAYHVAAPGPV, the protein stability index falls from 0.73 ± 0.019 to 0.686 ± 0.015.

First: VGSSGDEWGRYG
Second: KEEAKRPQSNET
The protein stability index of the first is higher: 0.7332 ± 0.0046 for the first, 0.706 ± 0.02 for the second.

NMKPPTNKGSNK and APLFPLTPLAPP are within error of each other in protein stability index: 0.675 ± 0.054 for the first, 0.733 ± 0.017 for the second.

CSHPHPSSNLPS and LGSCRCFAFVSL are within error of each other in protein stability index: 0.683 ± 0.045 for the first, 0.659 ± 0.023 for the second.

Compared with RVPGGLPCRPSL, LLVNSFLIFPPH is lower in protein stability index: 0.775 ± 0.041 for the first, 0.68474 ± 0.00059 for the second.

First: CGFGVSHASRIF
Second: LTFSRFIENHYL
The protein stability index of the first is higher: 0.78 ± 0.012 for the first, 0.662 ± 0.015 for the second.

QTLNTKEKREKE and GLLRSHYLDRGF are within error of each other in protein stability index: 0.727 ± 0.025 for the first, 0.693 ± 0.047 for the second.

SAPRPPPLPPSP and PPSRDSHPPPPP are within error of each other in protein stability index: 0.68 ± 0.068 for the first, 0.627 ± 0.02 for the second.

Going from LILFLTTSSPLV to PLYSKHPTRFFP, the protein stability index rises from 0.608 ± 0.017 to 0.714 ± 0.011.

First: FLLRFSPASRAV
Second: DWAGGKMESVYR
The protein stability index of the first is higher: 0.691 ± 0.019 for the first, 0.66 ± 0.011 for the second.

First: LGSYSALKIGWG
Second: YCHTSISPNSHL
The protein stability index of the first is lower: 0.592 ± 0.029 for the first, 0.787 ± 0.096 for the second.

SPVFYYCPGYVD and GVEVCEGDGPLK are within error of each other in protein stability index: 0.702 ± 0.05 for the first, 0.669 ± 0.015 for the second.

PPSPSSLPPPPL and APLSPSAPPPPP are within error of each other in protein stability index: 0.733 ± 0.0075 for the first, 0.709 ± 0.031 for the second.

PPPPTTATRQQT and RYANGVLHIGSN are within error of each other in protein stability index: 0.691 ± 0.016 for the first, 0.659 ± 0.042 for the second.

SNIEKKKTIKRK and TLCCLFPIPSSS are within error of each other in protein stability index: 0.6929 ± 0.0069 for the first, 0.699 ± 0.08 for the second.

GPVTSFAPVAVS and RGGEGTQRRKLR are within error of each other in protein stability index: 0.617 ± 0.038 for the first, 0.717 ± 0.077 for the second.

CPLPTAFRSTHV and WCECGVWVGLWG are within error of each other in protein stability index: 0.691 ± 0.019 for the first, 0.732 ± 0.059 for the second.

ARTSPRSPTFPP and PPPLPPPPLPGL are within error of each other in protein stability index: 0.69 ± 0.066 for the first, 0.676 ± 0.0084 for the second.

Compared with SLLPPPPPPAPS, SPAAGGRVGVRR is higher in protein stability index: 0.627 ± 0.011 for the first, 0.715 ± 0.021 for the second.

AISPHPPPALTP and FRPNPCLSPCSA are within error of each other in protein stability index: 0.6872 ± 0.0027 for the first, 0.643 ± 0.1 for the second.

ESLMYGYWGFAR and VVLGGGVGRGCW are within error of each other in protein stability index: 0.727 ± 0.045 for the first, 0.691 ± 0.13 for the second.

ARLPPPRPLPPP and PPPRPPPPSCPP are within error of each other in protein stability index: 0.748 ± 0.13 for the first, 0.685 ± 0.092 for the second.

Compared with KKKKKTKEINLK, VVSAIISGLSIK is higher in protein stability index: 0.6698 ± 0.00079 for the first, 0.733 ± 0.0088 for the second.

Compared with ISWTRAPLAHPR, SSCVSDKLLKNG is lower in protein stability index: 0.879 ± 0.17 for the first, 0.695 ± 0.011 for the second.

Going from HTLQDNHRLPRA to PPLSHPPPPLPL, the protein stability index rises from 0.6058 ± 0.0029 to 0.681 ± 0.037.

Compared with NDQWKKENRGKK, KRRIGKYEERME is lower in protein stability index: 0.737 ± 0.013 for the first, 0.661 ± 0.022 for the second.

GGGGGREPGCGP and PLPRLPLLPPLR are within error of each other in protein stability index: 0.707 ± 0.01 for the first, 0.67 ± 0.045 for the second.

Going from CSRGRNSDNNLI to KRKKNISKTEKS, the protein stability index rises from 0.631 ± 0.043 to 0.724 ± 0.016.

RAPPPPARPALP and LWCDPVLVLELR are within error of each other in protein stability index: 0.687 ± 0.028 for the first, 0.776 ± 0.072 for the second.

HFIDFVVVSFSI and GDKQKKNEKNKE are within error of each other in protein stability index: 0.548 ± 0.095 for the first, 0.681 ± 0.048 for the second.

RWAQVAEGGEGR and PLALARSPPPSP are within error of each other in protein stability index: 0.732 ± 0.099 for the first, 0.671 ± 0.02 for the second.

PPPPPPLPAPPH and TPVPIARLRESH are within error of each other in protein stability index: 0.693 ± 0.029 for the first, 0.709 ± 0.035 for the second.

RKNDSKKNCVKE and PPPPLPPLPGTL are within error of each other in protein stability index: 0.705 ± 0.089 for the first, 0.657 ± 0.045 for the second.

Compared with LSLICSLVHSIM, PPPYPRSTPFVP is higher in protein stability index: 0.635 ± 0.016 for the first, 0.6774 ± 0.005 for the second.

APPPPPPPRLTF and QFRRKGMITECK are within error of each other in protein stability index: 0.695 ± 0.076 for the first, 0.7161 ± 0.0029 for the second.

FRVSVRTVSSLR and CRHPYTSTTRLA are within error of each other in protein stability index: 0.654 ± 0.037 for the first, 0.68 ± 0.025 for the second.

SPPPNSLPPPPP and PPRPPPSPPLPP are within error of each other in protein stability index: 0.7181 ± 0.0043 for the first, 0.696 ± 0.062 for the second.

PPSRPPAPSPRS and PPHGPPPLPPPS are within error of each other in protein stability index: 0.695 ± 0.037 for the first, 0.678 ± 0.15 for the second.

GMRGGKGKPAET and YFGSHLILSRAT are within error of each other in protein stability index: 0.728 ± 0.0096 for the first, 0.665 ± 0.11 for the second.

CLGPTVYGRSTF and RRKGRLTAGWGR are within error of each other in protein stability index: 0.728 ± 0.025 for the first, 0.713 ± 0.025 for the second.

PPPPPHPTSPFP and SFGGGLIGAGVT are within error of each other in protein stability index: 0.751 ± 0.048 for the first, 0.698 ± 0.082 for the second.

CMGRCGVCCERS gave a protein stability index of 0.711 ± 0.045.
